One substance from PMC9271913 can be followed below.

This experiment addresses Human Flag-tagged RER1 TP37_38AA mutant (human). The experiment is described as follows: co-IP; SH-SY5Y and U251 cells co-transfected with Flag-tagged RER1 (wild type or mutant) and NEDD4-2-HA, with or without Tg (0.5 uM); gentle RIPA lysis buffer; anti-Flag or anti-HA on Protein A/G magnetic beads, 4°C overnight; immunoblot. (In general: A western blot detects proteins with antibodies after separation by electrophoresis.)

Sequence of Human Flag-tagged RER1 TP37_38AA mutant (human) (P78508 whole entry, stated change not applied): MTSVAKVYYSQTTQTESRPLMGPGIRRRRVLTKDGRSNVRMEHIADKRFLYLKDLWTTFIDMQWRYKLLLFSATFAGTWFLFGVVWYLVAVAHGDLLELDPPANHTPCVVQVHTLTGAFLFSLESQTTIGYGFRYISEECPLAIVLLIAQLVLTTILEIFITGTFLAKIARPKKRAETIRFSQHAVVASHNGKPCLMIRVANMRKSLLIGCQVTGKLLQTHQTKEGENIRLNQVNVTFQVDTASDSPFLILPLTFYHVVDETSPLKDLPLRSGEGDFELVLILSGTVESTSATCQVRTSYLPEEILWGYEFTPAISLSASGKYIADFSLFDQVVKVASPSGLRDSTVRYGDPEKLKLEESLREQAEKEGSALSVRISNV

In turn, “Human HA-tagged NEDD4-2 (from UniProt Q96PU5-5 1-955) (natural protein)” yielded an interaction in percent of wild-type RER1 (co-IP densitometry) of 30 to 40%.
